Data from patent publication US20070081998A1 (published 2007).

What was measured:
[1] = target: T1, biotinylated ADDL (bADDL) (UniProt P05067 672-713, N-terminal biotin); test: BIACORE, bADDL as antigen; column Fab
T1 construct: domain: Aβ1-42; Soluble oligomers of Aβ1-42; also called bADDLs; biotinylated high molecular weight ADDL

[2] = target: T1, biotinylated ADDL (bADDL); test: BIACORE, bADDL as antigen; column IgG1 #1
[3] = target: T2, biotin-Aβ1-20 (UniProt P05067 672-691, not fully specified; biotin (site not stated)); test: BIACORE
T2 construct: domain: Aβ1-20; BIACORE antigen standing for monomeric Aβ peptide; also called biotinylated-Aβ1-20
T2 peptide (looked up): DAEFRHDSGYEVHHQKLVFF

[4] = target: T1, biotinylated ADDL (bADDL); test: BIACORE, Fab fragment against bADDL
[5] = target: T2, biotin-Aβ1-20; test: BIACORE, Fab fragment against biotinylated-Aβ1-20
[6] = target: T1, biotinylated ADDL (bADDL); test: BIACORE, bADDL as antigen; column IgG1 #2

B1: Mouse-20C2 Fab (Fab, V domains shown)
VH: QVTLKESGPGILKPSQTLSLTCSLSGFSLSTSGMGVGWFRQPSGKGLEWLAHIWWDDDKSYNPSLKSRLTISKYTSRNQVFLTITSVDTADTATYYCARRQLGLRSIDAMDYWGQGTSVTVSS
VL: DVLMTQTPLSLPVSLGDQASISCRSSQSILHSNGNTYLEWYLQKPGQSPKLLIYKVSNRFSGVPDRFSGSGSGTDFTLKISRVEAEDLGVYYCFQGSLVPLTFGAGTKLELK
notes: Value in the Fab column of the row Mouse-20C2; also called murine 20C2
**Q.** With B1 as the binder, how does the Kd [1] read?
**A.** 62000 pM

B2: Mouse-20C2 antibody (IgG1) (antibody, V domains shown)
VH: QVTLKESGPGILKPSQTLSLTCSLSGFSLSTSGMGVGWFRQPSGKGLEWLAHIWWDDDKSYNPSLKSRLTISKYTSRNQVFLTITSVDTADTATYYCARRQLGLRSIDAMDYWGQGTSVTVSS
VL: DVLMTQTPLSLPVSLGDQASISCRSSQSILHSNGNTYLEWYLQKPGQSPKLLIYKVSNRFSGVPDRFSGSGSGTDFTLKISRVEAEDLGVYYCFQGSLVPLTFGAGTKLELK
notes: value in the column IgG1 #1; also called murine 20C2
**Q.** B2 was tested. Which Kd [2] did it give?
**A.** 4100 pM

B3: clone A3 humanized by veneering, full IgG1 molecule (antibody, V domains shown)
VH: QVTLKESGPGLLKPTQTLTLTCTLSGFSLSTSGMGVGWFRQPPGKGLEWLAHIWWDDDKSYNPSLKSRLTISKDTSKNQVVLTITNVDPVDTATYYCARRQLGTRGTDAMDYWGQGTTVTVSS
VL: DVVMTQTPLSLPVTPGQPASISCRSSQSILHSNGNTYLEWYLQKPGQSPQLLIYKVSNRFSGVPDRFSGSGSGTDFTLKISRVEAEDVGVYYCLQTTRVPLTFGQGTKLEIK
notes: also called Hu20C2A3 IgG1/kappa version
**Q.** Does B3 bind [3]?
**A.** binds

B4: 4a-A3 Fab (Fab, V domains shown)
VH: QVTLKESGPALVKPTQTLTLTCTLSGFSLSTSGMGVGWIRQPPGKALEWLAHIWWDDDKSYNPSLKSRLTISKDTSKNQVVLTMTNMDPVDTATYYCARRQLGTRGTDAMDYWGQGTTVTVSS
VL: DVVMTQSPLSLPVTPGEPASISCRSSQSILHSNGNTYLEWYLQKPGQSPQLLIYKVSNRFSGVPDRFSGSGSGTDFTLKISRVEAEDVGVYYCLQTTRVPLTFGQGTKLEIKR
**Q.** For B4, which Kd [4] is on record?
**A.** 82.3 pM

**Q.** And the Kd [5]?
**A.** 849 pM

B5: 20C2-2A Fab (Fab, V domains shown)
VH: QVTLKESGPALVKPTQTLTLTCTFSGFSLSTSGMGVGWIRQPPGKALEWLAHIWWDDDKSYNPSLKSRLTISKDTSKNQVVLTMTNMDPVDTATYYCARRQLGLRSIDAMDYWGQGTTVTVSS
VL: DVVMTQSPLSLPVTPGEPASISCRSSQSILHSNGNTYLEWYLQKPGQSPQLLIYKVSNRFSGVPDRFSGSGSGTDFTLKISRVEAEDVGVYYCFQATRVPLTFGQGTKLEIKR
**Q.** B5 was tested. Which Kd [1] did it give?
**A.** 28000 pM

B6: 20C2-6A Fab (Fab, V domains shown)
VH: QVTLKESGPALVKPTQTLTLTCTFSGFSLSTSGMGVGWIRQPPGKALEWLAHIWWDDDKSYNPSLKSRLTISKDTSKNQVVLTMTNMDPVDTATYYCARRQLGLRSIDAMDYWGQGTTVTVSS
VL: DVVMTQSPLSLPVTPGEPASISCRSSQSILHSNGNTYLEWYLQKPGQSPQLLIYKVSNRFSGVPDRFSGSGSGTDFTLKISRVEAEDVGVYYCFQSSRVPLTFGQGTKLEIKR
**Q.** With B6 as the binder, how does the Kd [1] read?
**A.** 42000 pM

B7: 4b-A7 Fab (Fab, V domains shown)
VH: QVTLKESGPALVKPTQTLTLTCTLSGFSLSTSGMGVGWIRQPPGKALEWLAHIWWDDDKSYNPSLKSRLTISKDTSKNQVVLTMTNMDPVDTATYYCARRQLGKLALDAMDYWGQGTTVTVSS
VL: DVVMTQSPLSLPVTPGEPASISCRSSQSILHSNGNTYLEWYLQKPGQSPQLLIYKVSNRFSGVPDRFSGSGSGTDFTLKISRVEAEDVGVYYCLQTTRVPLTFGQGTKLEIKR
**Q.** Which Kd [4] does the source give for B7 here?
**A.** 376 pM

**Q.** What about the Kd [5] of the same binder?
**A.** 1720 pM

B8: 20C2-6A IgG1 (antibody, V domains shown)
VH: QVTLKESGPALVKPTQTLTLTCTFSGFSLSTSGMGVGWIRQPPGKALEWLAHIWWDDDKSYNPSLKSRLTISKDTSKNQVVLTMTNMDPVDTATYYCARRQLGLRSIDAMDYWGQGTTVTVSS
VL: DVVMTQSPLSLPVTPGEPASISCRSSQSILHSNGNTYLEWYLQKPGQSPQLLIYKVSNRFSGVPDRFSGSGSGTDFTLKISRVEAEDVGVYYCFQSSRVPLTFGQGTKLEIK
notes: IgG1 humanized A version; also called 4P1-22
**Q.** B8 was tested. Which Kd [2] did it give?
**A.** 4.3 pM

**Q.** And the Kd [6]?
**A.** 24 pM

B9: 20C28B Fab (Fab, V domains shown)
VH: QVTLKESGPALVKPTQTLTLTCTLSGFSLSTSGMGVGWIRQPPGKALEWLAHIWWDDDKSYNPSLKSRLTISKDTSKNQVVLTMTNMDPVDTATYYCARRQLGLRSIDAMDYWGQGTTVTVSS
VL: DVVMTQSPLSLPVTPGEPASISCRSSQSILHSNGNTYLEWYLQKPGQSPQLLIYKVSNRFSGVPDRFSGSGSGTDFTLKISRVEAEDVGVYYCLQTTRVPLTFGQGTKLEIKR
**Q.** With B9 as the binder, how does the Kd [4] read?
**A.** 1100 pM

**Q.** And the Kd [5]?
**A.** 1100 pM

B10: 20C2-5A Fab (Fab, V domains shown)
VH: QVTLKESGPALVKPTQTLTLTCTFSGFSLSTSGMGVGWIRQPPGKALEWLAHIWWDDDKSYNPSLKSRLTISKDTSKNQVVLTMTNMDPVDTATYYCARRQLGLRSIDAMDYWGQGTTVTVSS
VL: DVVMTQSPLSLPVTPGEPASISCRSSQSILHSNGNTYLEWYLQKPGQSPQLLIYKVSNRFSGVPDRFSGSGSGTDFTLKISRVEAEDVGVYYCFQSSFVPLTFGQGTKLEIKR
**Q.** Which Kd [1] does the source give for B10 here?
**A.** 41000 pM

B11: 4b-H11 Fab (Fab, V domains shown)
VH: QVTLKESGPALVKPTQTLTLTCTLSGFSLSTSGMGVGWIRQPPGKALEWLAHIWWDDDKSYNPSLKSRLTISKDTSKNQVVLTMTNMDPVDTATYYCARRQLGRRSVDAMDYWGQGTTVTVSS
VL: DVVMTQSPLSLPVTPGEPASISCRSSQSILHSNGNTYLEWYLQKPGQSPQLLIYKVSNRFSGVPDRFSGSGSGTDFTLKISRVEAEDVGVYYCLQTTRVPLTFGQGTKLEIKR
**Q.** Which results are given for B11?
**A.** Kd [4]: 1050 pM; Kd [5]: 1330 pM

B12: 20C2-24A IgG1 (antibody, V domains shown)
VH: QVTLKESGPALVKPTQTLTLTCTFSGFSLSTSGMGVGWIRQPPGKALEWLAHIWWDDDKSYNPSLKSRLTISKDTSKNQVVLTMTNMDPVDTATYYCARRQLGLRSIDAMDYWGQGTTVTVSS
VL: DVVMTQSPLSLPVTPGEPASISCRSSQSILHSNGNTYLEWYLQKPGQSPQLLIYKVSNRFSGVPDRFSGSGSGTDFTLKISRVEAEDVGVYYCGQTTLVPLTFGQGTKLEIK
notes: IgG1 humanized A version; also called SJ-p2-44
**Q.** For B12, which Kd [2] is on record?
**A.** 114 pM

B13: 20C2-2A IgG1 (antibody, V domains shown)
VH: QVTLKESGPALVKPTQTLTLTCTFSGFSLSTSGMGVGWIRQPPGKALEWLAHIWWDDDKSYNPSLKSRLTISKDTSKNQVVLTMTNMDPVDTATYYCARRQLGLRSIDAMDYWGQGTTVTVSS
VL: DVVMTQSPLSLPVTPGEPASISCRSSQSILHSNGNTYLEWYLQKPGQSPQLLIYKVSNRFSGVPDRFSGSGSGTDFTLKISRVEAEDVGVYYCFQATRVPLTFGQGTKLEIK
notes: IgG1 humanized A version; also called SJ-p1-18
**Q.** What does the source list for B13?
**A.** Kd [2]: 15 pM; Kd [6]: 0.3 pM

B14: 20C2-6B IgG1 (antibody, V domains shown)
VH: QVTLKESGPALVKPTQTLTLTCTLSGFSLSTSGMGVGWIRQPPGKALEWLAHIWWDDDKSYNPSLKSRLTISKDTSKNQVVLTMTNMDPVDTATYYCARRQLGLRSIDAMDYWGQGTTVTVSS
VL: DVVMTQSPLSLPVTPGEPASISCRSSQSILHSNGNTYLEWYLQKPGQSPQLLIYKVSNRFSGVPDRFSGSGSGTDFTLKISRVEAEDVGVYYCFQSSRVPLTFGQGTKLEIK
notes: IgG1 humanized B version; also called 4P1-22
**Q.** B14 was tested. Which Kd [2] did it give?
**A.** 53 pM

B15: 20C2-5A IgG1 (antibody, V domains shown)
VH: QVTLKESGPALVKPTQTLTLTCTFSGFSLSTSGMGVGWIRQPPGKALEWLAHIWWDDDKSYNPSLKSRLTISKDTSKNQVVLTMTNMDPVDTATYYCARRQLGLRSIDAMDYWGQGTTVTVSS
VL: DVVMTQSPLSLPVTPGEPASISCRSSQSILHSNGNTYLEWYLQKPGQSPQLLIYKVSNRFSGVPDRFSGSGSGTDFTLKISRVEAEDVGVYYCFQSSFVPLTFGQGTKLEIK
notes: IgG1 humanized A version; also called SJ-p2-1F
**Q.** For B15, which Kd [2] is on record?
**A.** 317 pM

**Q.** And the Kd [6]?
**A.** 68 pM

B16: 20C2-1A IgG1 (antibody, V domains shown)
VH: QVTLKESGPALVKPTQTLTLTCTFSGFSLSTSGMGVGWIRQPPGKALEWLAHIWWDDDKSYNPSLKSRLTISKDTSKNQVVLTMTNMDPVDTATYYCARRQLGLRSIDAMDYWGQGTTVTVSS
VL: DVVMTQSPLSLPVTPGEPASISCRSSQSILHSNGNTYLEWYLQKPGQSPQLLIYKVSNRFSGVPDRFSGSGSGTDFTLKISRVEAEDVGVYYCFQASRVPLTFGQGTKLEIK
notes: IgG1 humanized A version; also called SJ-p2-60
**Q.** B16 was tested. Which Kd [2] did it give?
**A.** 75 pM

B17: 20C2-8A IgG1 (antibody, V domains shown)
VH: QVTLKESGPALVKPTQTLTLTCTFSGFSLSTSGMGVGWIRQPPGKALEWLAHIWWDDDKSYNPSLKSRLTISKDTSKNQVVLTMTNMDPVDTATYYCARRQLGLRSIDAMDYWGQGTTVTVSS
VL: DVVMTQSPLSLPVTPGEPASISCRSSQSILHSNGNTYLEWYLQKPGQSPQLLIYKVSNRFSGVPDRFSGSGSGTDFTLKISRVEAEDVGVYYCLQTTRVPLTFGQGTKLEIK
notes: IgG1 humanized A version; also called SJ-p2-39
**Q.** What does the source list for B17?
**A.** Kd [2]: 3 pM; Kd [6]: 0.7 pM

B18: 20C2-8B IgG1 (antibody, V domains shown)
VH: QVTLKESGPALVKPTQTLTLTCTLSGFSLSTSGMGVGWIRQPPGKALEWLAHIWWDDDKSYNPSLKSRLTISKDTSKNQVVLTMTNMDPVDTATYYCARRQLGLRSIDAMDYWGQGTTVTVSS
VL: DVVMTQSPLSLPVTPGEPASISCRSSQSILHSNGNTYLEWYLQKPGQSPQLLIYKVSNRFSGVPDRFSGSGSGTDFTLKISRVEAEDVGVYYCLQTTRVPLTFGQGTKLEIK
notes: IgG1 humanized B version; also called SJ-p2-39
**Q.** Which Kd [2] does the source give for B18 here?
**A.** 13 pM

**Q.** What about the Kd [6] of the same binder?
**A.** 0.8 pM

B19: 20C2-3A IgG1 (antibody, V domains shown)
VH: QVTLKESGPALVKPTQTLTLTCTFSGFSLSTSGMGVGWIRQPPGKALEWLAHIWWDDDKSYNPSLKSRLTISKDTSKNQVVLTMTNMDPVDTATYYCARRQLGLRSIDAMDYWGQGTTVTVSS
VL: DVVMTQSPLSLPVTPGEPASISCRSSQSILHSNGNTYLEWYLQKPGQSPQLLIYKVSNRFSGVPDRFSGSGSGTDFTLKISRVEAEDVGVYYCFQGSFIPGTFGQGTKLEIK
notes: IgG1 humanized A version; also called SJ-p3-16
**Q.** Which Kd [2] does the source give for B19 here?
**A.** 3700 pM
